Test results as given in patent publication US20250127938A1, “THERAGNOSTIC FOLATE CONJUGATES” (Merck Patent GmbH, priority 2022, published 2025).

Columns and labels:
[1] = target: folate receptor-alpha (FR) (Homo sapiens, UniProt P15328); conditions: background statement; cited from earlier work
[2] = target: T1, FR (folate receptor) on IGROV-1 cells (Homo sapiens, UniProt P15328); assay: FR-binding affinity (KD) on FR-positive IGROV-1 cells; conditions: 1 h at 4° C., average of 3 experiments
T1 construct: FR-positive IGROV-1 cells (human ovarian carcinoma cell line); endogenous in cells; host or cells: IGROV-1 human ovarian carcinoma cells (provided by Dr. Gerrit Janssen, Free University Medical Center Amsterdam)
Protocol: The determination of the KD values was performed as previously reported (Deberle, L. M. et al; Bioconj Chem 2021, 32, p. 1617). FR-positive IGROV-1 cells (human ovarian carcinoma cell line, kindly provided by Dr. […] Janssen, Free University Medical Center Amsterdam, The Netherlands) were seeded in 48-well plates (2.5×10^5 cells/well) in 500 μL FFRPMI medium with supplements. The cells were incubated at 37° C. and 5% CO2 to allow cell adhesion overnight. The experiment was performed on ice using ice-cold medium and buffer solutions. After removal of the supernatant, the cells were rinsed once with PBS prior to the addition of FFRPMI medium without supplements (450 μL/well). The respective folate radioconjugate of the disclosure (20 MBq/nmol) was added to each well at variable concentrations (in the range of 0.1 to 500 nM, 50 μL per well). […] The IGROV-1 tumor cells were incubated for 1 h at 4° C. on a shaker, followed by removal of the supernatants and rinsing the cells twice with PBS. After lysis of the cells with NaOH solution (1 M, aq., 500 μL), the samples were counted for activity in a γ-counter (Wallac Wizard 1480, Perkin Elmer). The counts per minute (cpm) of the specific binding (determined by subtracting the cpm of the unspecific binding from the cpm of total binding), were plotted against the molar concentration of the added folate radioconjugates of the disclosure. […]

[3] = type: physicochemical; conditions: pH 7.4
Protocol: The n-octanol/PBS distribution coefficients (log D values) were determined for each folate radioconjugate of the disclosure in order to assess their hydrophilic/hydrophobic properties. The log D values of the folate radioconjugates of the disclosure (50 MBq/nmol) were determined as previously reported, after dilution in PBS pH 7.4 to obtain an activity concentration of 10 MBq/500 μL. A sample of each radiofolate (ca. 0.5 MBq, 25 μL, 0.01 nmol) was added to a mixture of 1475 μL PBS pH 7.4 and 1500 μL n-octanol. The vials were vortexed vigorously for 1 min followed by centrifugation for 6 min at 2500 rpm for phase separation. An aliquot was taken from each phase and measured in a gamma-counter (Perkin Elmer, Wallac Wizard 1480). The distribution coefficients were calculated as the logarithm of the ratio of counts per minute (cpm) measured in the n-octanol phase relative to the cpm measured in the PBS phase. The results were listed as mean±SD of the data obtained from 3 independent experiments, each performed with five replicates.

human albumin = system: T2, human albumin; assay: in vitro; type: in vitro ADME; conditions: plasma
T2 construct: tissue Stiftung Blutspende SRK Aargau-Solothurn, Switzerland; host or cells: human blood plasma
Protocol: (§1) Albumin-binding properties were determined in mouse and human blood plasma. The albumin-binding properties of the folate radioconjugates of the disclosure in mouse blood plasma (Rockland Immunochemicals, Inc., USA) and human blood plasma (Stiftung Blutspende SRK Aargau-Solothurn, Switzerland) were determined using an ultrafiltration method (Deberle, L. M. et al., Molecules 2020, 25, (11)). The amount of serum albumin in mouse (MSA) and human (HSA) blood plasma was defined as 550 μM and 800 μM, respectively, based on measurements using a dry chemistry analyzer (DRI-CHEM 4000i, FUJIFILM, Japan). The folate radioconjugates of the disclosure (50 MBq/nmol, ca. 300 kBq, 0.006 nmol in 15 μL) were added to samples of mouse and human blood plasma (150 μL), followed by incubation of the samples at 37° C. for 30 min. The samples were loaded on Amicon centrifugal filters (cut-off of 10 kDa; Merck Millipore) followed by centrifugation (14,000 rcf, 30 min, 4° C.) to allow the separation of the plasma-bound from the plasma-unbound (free) fractions of each sample. The inserts of the filter devices were inverted and centrifuged at 200 rcf for 3 min to recover the protein-bound fraction. The activity of the protein-bound fraction as well as the activity in the filtrate and in the filter unit were measured separately in a gamma-counter (Perkin Elmer, Wallac Wizard 1480). The percentage of radioconjugate bound to mouse and human albumin, respectively, was set in relation to the total activity measured (Table 4).

mouse albumin = system: T3, mouse albumin; assay: in vitro; type: in vitro ADME; conditions: plasma
T3 construct: tissue Rockland Immunochemicals, Inc., USA; host or cells: mouse blood plasma
Protocol: as §1

[4] = Radiolytic stability of the radioconjugates (HPLC); type: physicochemical; conditions: room temperature, PBS pH 7.4, 100 MBq/500 μL, relative to value at t0
Protocol: Radiolytic stability: After performing quality control of the radioconjugates (50 MBq/nmol) using HPLC (t0=0 h), the radioconjugates were diluted in PBS pH 7.4 to obtain an activity concentration of 100 MBq/500 μL. The radioconjugate dilutions were incubated at room temperature. The integrity of the radioconjugates was assessed after a 4 h and 24 h, respectively, using HPLC. The HPLC chromatograms were analyzed by determination of the peak area of the radiolabeled product, the released lutetium-177 as well as the degradation products of unknown structure. The quantity of the intact product was expressed as the percentage of the sum of integrated peak areas of the entire chromatogram and set into relation to the original value determined at to (radiochemical purity >95% set as 100%).

T1 sequence (P15328 25-234): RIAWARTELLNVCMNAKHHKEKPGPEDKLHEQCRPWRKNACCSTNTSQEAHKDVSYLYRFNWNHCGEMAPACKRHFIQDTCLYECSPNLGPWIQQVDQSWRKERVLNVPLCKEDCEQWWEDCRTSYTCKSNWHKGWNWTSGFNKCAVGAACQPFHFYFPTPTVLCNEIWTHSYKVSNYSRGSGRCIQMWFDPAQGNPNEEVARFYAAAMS
Sequence of folate receptor-alpha (FR) (P15328 25-234, species assumed): as the sequence (P15328 25-234) above

Kd [2] [nM] | Structure (SMILES) | FR affinity (KD) [1] | logD [3] | fraction unbound at 30 min, 0.036 µM (human albumin) | fraction unbound at 30 min, 0.036 µM (mouse albumin) | Intact radiolabeled product [%] ([4]; 4 h) | Intact radiolabeled product [%] ([4]; 24 h)
– | CN1c2c(nc(N)[nH]c2=O)NCC1CNc1ccc(C(=O)N[C@@H](CCC(=O)O)C(=O)O)cc1 (stereo partly shown) [5-methyltetrahydrofolic acid] | nanomolar range | – | – | – | – | –
5.6 | CN1c2c(nc(N)[nH]c2=O)NC[C@H]1CNc1ccc(C(=O)N[C@@H](CCC(=O)N[C@@H](CCCCNC(=O)CN2CCN(CC(=O)O)CCN(CC(=O)O)CCN(CC(=O)O)CC2)C(=O)N[C@@H](CCCCNC(=O)CCCCc2ccc(I)cc2)C(=O)O)C(=O)O)cc1 [[^177Lu]Lu-6R-RedFol-24, metal not drawn] | – | -3.5 ± 0.2 | 0.06 | 0.27 | ≥99 | ≥99
4.6 | CN1c2c(nc(N)[nH]c2=O)NC[C@@H]1CNc1ccc(C(=O)N[C@@H](CCC(=O)N[C@@H](CCCCNC(=O)CN2CCN(CC(=O)O)CCN(CC(=O)O)CCN(CC(=O)O)CC2)C(=O)N[C@@H](CCCCNC(=O)CCCCc2ccc(I)cc2)C(=O)O)C(=O)O)cc1 [[^177Lu]Lu-6S-RedFol-24, metal not drawn] | – | -3.1 ± 0.1 | 0.14 | 0.26 | ≥99 | ≥99
